Results on three substances are retold here after publication PMC10811340.

Experiment [1] concerns the target Milano Short Tail Fiber (STF), gp31 (Agrobacterium tumefaciens bacteriophage Milano). Briefly: cryo-EM structure; baseplate junction of purified native Milano virions in the extended state, single particle analysis with C3 symmetry, ~3.2 Å; distal parts of the receptor-binding proteins and the garland only rigid-body fitted with AlphaFold models.
Experiment [2] has as its target Milano Tail Spike Protein (TSP), gp124 (Agrobacterium tumefaciens bacteriophage Milano). The experiment is described as above.
In experiment [3] the target is Milano tail tube protein, gp21 (Agrobacterium tumefaciens bacteriophage Milano). Briefly: cryo-EM structure; extended (pre-attachment) tail of purified native Milano virions; curved tail segments reconstructed with no imposed symmetry; the straight baseplate-proximal segment was extracted from the baseplate junction structure.

The stoichiometry N is a count of units in the complex or per binding partner.

“Milano Short Tail Fiber (STF), gp31 (natural protein)” displayed a stoichiometry N in experiment [1] of 3.

The substance “Milano Tail Spike Protein (TSP), gp124 (natural protein)” returned a stoichiometry N in experiment [2] of 3. In turn, “Milano tail tube protein, gp21 (natural protein)” showed a stoichiometry N in experiment [3] of 6.
